Test results reported in patent US20250114431A1, “COMPOUND, COMPOSITION AND METHODS FOR LOWERING CIRCULATING GLUCOSE” (THE HONG KONG POLYTECHNIC UNIVERSITY, priority 2023, published 2025).

What was measured:
[1] = tested on: STZ-induced diabetic mice; experiment: Recombinant Plac9 in streptozotocin (STZ)-induced insulin-deficient diabetic mouse model, biometric data and glucose tolerance test; format: in vivo, C57BL/6J mice
Experimental: Turning to FIG. 3A, 8-week-old male C57BL/6J mice (n=8) which were fed with standard chow (STC) diet were treated with streptozotocin (STZ) for 5 days to induce diabetes. Similar to Example 1, 2 mg/kg (BW) of recombinant mPLAC9 was administered to the STZ-induced diabetic mice via i.p. injection once daily for 18 days (treatment group). In parallel, PBS was injected to STZ-induced diabetic mice for 18 days as a control group.
GTT was also performed at Day 5 and Day 15 in this STZ-induced diabetic model. […] Similar trend was observed between the treatment and control groups at Day 15 (FIGS. 3H-3I).

primary hepatocytes = experiment: Glucose uptake assay (2DG6P) in primary hepatocytes; format: cell-based
Experimental: (§1) To verify that the glucose homeostasis is regulated through liver or hepatocytes by overexpression of Plac9 in an insulin-independent manner, an in vitro insulin secretion assay was performed on confluent pancreatic beta cells, MIN6, in each well treated by […] of Exendin-4 or different concentrations of recombinant Plac9 of mouse origin at 10, 100 and 1000 nM (n=8) and measured the insulin content of each well by a mouse insulin ELISA kit. […] A glucose uptake assay was performed on primary hepatocytes and hepatic cell line, HepG2, treated with different concentrations (from 0.125 or 0.25 to 1.0 μM) in the presence or absence of exogenous 10 nM insulin, and the results are shown in FIGS. 5B and 5C, respectively.

HFD-fed obese mice = experiment: Recombinant Plac9 in high-fat diet (HFD)-induced obese, diabetic (DM2) mouse model, biometric data and glucose tolerance test; format: in vivo, C57BL/6J mice; conditions: vs PBS control
Experimental: Turning to FIG. 2A, 8-week-old male C57BL/6J mice (n=8) were fed with a high-fat diet (HFD) for 12 weeks to induce a diabetes mellitus type 2 (DM2) model and then treated with 2 mg/kg (per body weight; hereinafter as “BW”) of recombinant mouse Plac9 (synthesized and purified from E. coli expressing mouse Plac9 represented by SEQ ID NO: 2; hereinafter as “mPLAC9”) once daily via intraperitoneal (i.p.) injection for 18 days to evaluate its effects on glucose uptake and tolerance in an obese, diet-induced diabetic model. Body weight (FIG. 2B), fasting blood glucose level (FIG. 2C), feeding blood glucose level (FIG. 2D) and blood insulin level (FIG. 2E) were measured at the beginning of the i.p. injection and then once every 3 days until the end of the experiment (i.e., Day 3, 6, 9, 12, 15 and 18). Another group of HFD-fed mice was injected with PBS once daily and measured with the same biometric data as in the Plac9-injected group (treatment group) once every 3 days from the beginning of the injection until the end of the experiment.
Glucose tolerance test (GTT) was also performed in both the treatment and control groups at Day 0 and Day 15 of the experiment. […] At Day 15, the overall blood glucose level was also lower in the treatment group than that of the control group over the 90-minute time course (FIGS. 2H-2I).

[2] = tested on: MIN6 pancreatic beta cells; experiment: Glucose stimulated insulin secretion assay in MIN6 cells (mouse insulin ELISA); format: cell-based; conditions: 10, 100 and 1000 nM, n=8; FIG. 5A
Experimental: as §1

B1: mPLAC9: recombinant mouse Plac9 synthesized and purified from E. coli expressing mouse Plac9 represented by SEQ ID NO: 2 (protein, listed as Mus musculus)
chain: EWGQGPRDTPGRRAAESPSSPGDLAGSPGCDRHAAVQRRLDIMEETVEKTVEHLEAEVTGLLGLLEELASNLPTGPFSPKPDLLGDDGF
[1]; 2 mg/kg BW i.p. once daily, 18 days, treatment vs PBS control, FIG. 3B
  change in body weight: similar
[1]; 2 mg/kg BW i.p. once daily, 18 days, treatment vs PBS control, FIG. 3C
  change in fasting glucose level: similar
[1]; 2 mg/kg BW i.p. once daily, 18 days, treatment vs PBS control, FIG. 3D
  change in feeding glucose level: similar
[1]; Day 0, 90-minute time course, vs PBS control, FIGS. 3F-3G
  overall blood glucose level in GTT: lower
[1]; Day 0 to Day 5, treatment vs PBS control, FIG. 3E
  blood insulin level: similar
[1]; from Day 5 till the end of the experiment, no change in control group, FIG. 3E
  blood insulin concentration: increased
[1]; till the end of the experiment, FIG. 3E
  restoration of blood insulin level to the level measured at Day 0: could not be restored
Primary hepatocytes; 0.125 to 1.0 μM, with or without 10 nM insulin, FIG. 5B
  glucose uptake: enhanced by Plac9 is in a dose-dependent manner
Primary hepatocytes; co-administration with 10 nM insulin, overall statement for liver or hepatocytes (primary hepatocytes and HepG2)
  glucose uptake on co-administration with insulin: further enhance the glucose uptake
HFD-fed obese mice; 2 mg/kg BW i.p. once daily, 18 days, FIG. 2B
  body weight change: no obvious weight change
HFD-fed obese mice; 2 mg/kg BW i.p. once daily, 18 days, FIG. 2C
  fasting blood glucose level: no obvious changes
HFD-fed obese mice; 2 mg/kg BW i.p. once daily, 18 days, FIG. 2D
  feeding blood glucose level: no obvious changes
HFD-fed obese mice; Day 0, 90-minute time course, FIGS. 2F-2G
  blood glucose level in glucose tolerance test (GTT): more significantly reduced
HFD-fed obese mice; Day 15, 2 mg/kg BW i.p. once daily, FIG. 2E
  blood insulin concentration: reduced
HFD-fed obese mice; Day 15, 90-minute time course, FIGS. 2H-2I
  overall blood glucose level in glucose tolerance test (GTT): lower
[2]
  insulin secretion: does not induce insulin secretion
